{"source": "patent US7820142B2", "about": "“Immunogenic glycopeptides, screening, preparation and uses” (priority 2004, dated 2010)", "key": {"CD4+ T lymphocytes": {"system": "CD4+ T lymphocytes", "format": "cell-based, human", "details": "for difference of response between tuberculosis patients and vaccinated controls (in words): 18 patients versus 12 BCG-vaccinated controls"}, "T lymphocytes": {"system": "T lymphocytes", "assay": "in vitro lymphocyte proliferation assay", "format": "cell-based", "from_the_text": "The conditions of the assay are those described in Horn et al., mentioned above."}, "[1]": {"system": "guinea pigs immunized with live BCG", "format": "in vivo, guinea pig", "details": "for loss of antigenic activity during digestion with α-mannosidase: 0.2 μg intradermal"}, "[2]": {"system": "guinea pigs immunized with heat-inactivated BCG", "format": "in vivo, guinea pig"}, "[3]": {"system": "guinea pigs immunized with the plasmids pAG831 or pAG832", "assay": "delayed-type hypersensitivity assay, guinea pigs immunized with naked DNA encoding Apa", "details": "guinea pig, in vivo"}, "[4]": {"system": "guinea pigs immunized with the Apa fusion peptide", "assay": "delayed hypersensitivity reactions, guinea pigs immunized with the Apa fusion peptide", "format": "in vivo, guinea pig"}, "[5]": {"system": "CD4+ T lymphocytes originating from animals infected with M. tuberculosis or immunized with BCG", "details": "cited from earlier work"}, "[6]": {"details": "guinea pigs immunized with live BCG"}}, "note": "“Also recorded” adds a separate entry of the source. Read-outs that look alike come from different tables or passages of the source. No end group written: not given here.", "data": [{"molecule": "H-DPEPAPPVPTTAASPPSTAAAPPAPATPVAPPPPAPAAAT-NH2 [glycosylated Apa peptide]", "values": [{"measurement": "stimulation of CD4+ lymphocytes from the controls", "setting": "CD4+ T lymphocytes", "result": "does not stimulate"}, {"measurement": "proportion of tuberculosis patients positive in the assay", "setting": "CD4+ T lymphocytes; 18 tuberculosis patients, six days stimulation", "result": "13/18"}]}, {"molecule": "Lip: mannosylated glycopeptide purified from M. tuberculosis culture medium, derived from the protein encoded by the Rv1796 gene (SEQ ID NO:3) (Ac-TIPTTETPPPPQTVTLSPVPPQTVTVIPAPPPEEG; also: mannosylated; listed as Mycobacterium tuberculosis)", "values": [{"measurement": "T-lymphocyte proliferation", "setting": "T lymphocytes; T lymphocytes treated with an antibody directed against CD4 molecules", "result": "marginal"}, {"measurement": "T-lymphocyte proliferation", "setting": "T lymphocytes; glycopeptide treated with α-mannosidase", "result": "marginal"}, {"measurement": "T-lymphocyte proliferation", "setting": "T lymphocytes; native glycopeptide", "result": "dependent on the peptide concentration"}, {"measurement": "erythema reaction, peptide treated with subtilisin", "setting": "[1]; 0.02 μg in 0.1 ml", "result": "negative"}, {"measurement": "erythema reaction, peptide treated with α-mannosidase", "setting": "[1]; 0.02 μg in 0.1 ml", "result": "negative"}, {"measurement": "antigenic activity after deglycosylation", "setting": "[1]; after α-mannosidase for 24 h at 37° C.", "result": "less than 30 000 TU/mg"}, {"measurement": "antigenic activity", "setting": "[1]; [6]", "result": "1 000 000 TU/mg"}, {"measurement": "delayed-type hypersensitivity reaction (in words)", "setting": "[1]; [6]", "result": "very active"}, {"measurement": "antigenic activity after the action of subtilisin", "setting": "[1]; subtilisin 24 h at 37° C.", "result": "abolishes the antigenic activity"}, {"measurement": "activity relative to PPD at an equivalent amount of proteins", "setting": "[1]; versus standard purified proteins from M. tuberculosis (PPD)", "result": "at least 10 times"}, {"measurement": "loss of antigenic activity after α-mannosidase", "setting": "[1]; α-mannosidase for 24 h at 37° C.", "result": "more than 95%"}, {"measurement": "delayed-type hypersensitivity reaction (in words)", "setting": "[2]", "result": "relatively inactive"}]}, {"molecule": "Native Apa: protein secreted by M. tuberculosis, product of the Rv 1860 gene, purified from the culture supernatant (protein, UniProt P9WIR7 40-325, looked up, glycosylated native, protein secreted by M. tuberculosis, product of the Rv 1860 gene, purified from the culture supernatant) Alanine and proline-rich …: DPEPAPPVPTTAASPPSTAAAPPAPATPVAPPPPAAANTPNAQPGDPNAAPPPADPNAPPPPVIAPNAPQPVRIDNPVGGFSFALPAGWVESDAAHFDYGSALLSKTTGDPPFPGQPPPVANDTRIVLGRLDQKLYASAEATDSKAAARLGSDMGEFYMPYPGTRINQETVSLDANGVSGSASYYEVKFSDPSKPNGQIWTGVIGSPAANAPDAGPPQRWFVVWLGTANNPVDKGAAKALAESIRPLVAPPPAPAPAPAEPAPAPAPAGEVAPTPTTPTPQRTLPA", "values": [{"measurement": "delayed-type hypersensitivity / CD4+ T lymphocyte response (in words)", "setting": "[3]", "result": "equivalent; also recorded: develop, in the vast majority of cases, an immune response"}, {"measurement": "difference of response between tuberculosis patients and vaccinated controls (in words)", "setting": "CD4+ T lymphocytes", "result": "stimulates more frequently the response from the patients"}, {"measurement": "loss of antigenic activity", "setting": "[1]; Apa molecules on which there remain 3 to 6 mannose residues", "result": 86, "unit": "%"}, {"measurement": "loss of antigenic activity during digestion with α-mannosidase", "setting": "[1]; digestion 1 h", "result": 66, "unit": "%"}, {"measurement": "loss of antigenic activity during digestion with α-mannosidase", "setting": "[1]; digestion 4 h", "result": 86, "unit": "%"}, {"measurement": "delayed-type hypersensitivity reaction (in words)", "setting": "[1]; [6]", "result": "antigenic; also recorded: show a delayed-type hypersensitivity reaction; also recorded: considerable"}, {"measurement": "sensitization (in words)", "setting": "[4]", "result": "identical"}, {"measurement": "loss of antigenicity after demannosylation", "setting": "[5]; α-mannosidase, TFMS or expression in E. coli", "result": 100, "unit": "fold"}]}, {"molecule": "glycosylated Apa produced by Mycobacterium smegmatis: Apa produced by M. smegmatis, overall mannose composition slightly different from that of M. tuberculosis Apa (protein, UniProt P9WIR7 40-325, looked up, glycosylated, produced in M. smegmatis) Alanine and proline-rich …: DPEPAPPVPTTAASPPSTAAAPPAPATPVAPPPPAAANTPNAQPGDPNAAPPPADPNAPPPPVIAPNAPQPVRIDNPVGGFSFALPAGWVESDAAHFDYGSALLSKTTGDPPFPGQPPPVANDTRIVLGRLDQKLYASAEATDSKAAARLGSDMGEFYMPYPGTRINQETVSLDANGVSGSASYYEVKFSDPSKPNGQIWTGVIGSPAANAPDAGPPQRWFVVWLGTANNPVDKGAAKALAESIRPLVAPPPAPAPAPAEPAPAPAPAGEVAPTPTTPTPQRTLPA", "values": [{"measurement": "decrease of antigenic activity versus Apa produced by M. tuberculosis", "setting": "[5]", "result": "approximately 10 fold"}]}, {"molecule": "Deglycosylated Apa: deglycosylated Apa protein prepared as described in example 1 (digestion with α-mannosidase) (protein, UniProt P9WIR7 40-325, looked up, deglycosylated) Alanine and proline-rich …: DPEPAPPVPTTAASPPSTAAAPPAPATPVAPPPPAAANTPNAQPGDPNAAPPPADPNAPPPPVIAPNAPQPVRIDNPVGGFSFALPAGWVESDAAHFDYGSALLSKTTGDPPFPGQPPPVANDTRIVLGRLDQKLYASAEATDSKAAARLGSDMGEFYMPYPGTRINQETVSLDANGVSGSASYYEVKFSDPSKPNGQIWTGVIGSPAANAPDAGPPQRWFVVWLGTANNPVDKGAAKALAESIRPLVAPPPAPAPAPAEPAPAPAPAGEVAPTPTTPTPQRTLPA", "values": [{"measurement": "delayed-type hypersensitivity / CD4+ T lymphocyte response (in words)", "setting": "[3]", "result": "of the same strength as the responses observed with the glycosylated native antigen"}, {"measurement": "difference of response between tuberculosis patients and vaccinated controls (in words)", "setting": "CD4+ T lymphocytes", "result": "this difference between the groups is lost"}, {"measurement": "delayed-type hypersensitivity reaction (in words)", "setting": "[1]; [6]", "result": "very weak or absent"}, {"measurement": "sensitization (in words)", "setting": "[4]", "result": "identical"}]}, {"molecule": "E. Coli recombinant Apa: deglycosylated recombinant Apa produced in E. coli (protein, UniProt P9WIR7 40-325, looked up, recombinant, non-glycosylated, E. coli) Alanine and proline-rich …: DPEPAPPVPTTAASPPSTAAAPPAPATPVAPPPPAAANTPNAQPGDPNAAPPPADPNAPPPPVIAPNAPQPVRIDNPVGGFSFALPAGWVESDAAHFDYGSALLSKTTGDPPFPGQPPPVANDTRIVLGRLDQKLYASAEATDSKAAARLGSDMGEFYMPYPGTRINQETVSLDANGVSGSASYYEVKFSDPSKPNGQIWTGVIGSPAANAPDAGPPQRWFVVWLGTANNPVDKGAAKALAESIRPLVAPPPAPAPAPAEPAPAPAPAGEVAPTPTTPTPQRTLPA", "values": [{"measurement": "delayed-type hypersensitivity / CD4+ T lymphocyte response (in words)", "setting": "[3]", "result": "of the same strength as the responses observed with the glycosylated native antigen"}, {"measurement": "delayed-type hypersensitivity / CD4+ T lymphocyte response (in words)", "setting": "[3]; listed as E. coli rApa", "result": "equivalent"}, {"measurement": "delayed-type hypersensitivity reaction (in words)", "setting": "[1]; guinea pigs immunized with live BCG, listed as molecules produced in E. coli", "result": "very weak or absent"}, {"measurement": "delayed-type hypersensitivity reaction (in words)", "setting": "[1]; guinea pigs immunized with live BCG, listed as non-glycosylated recombinant Apa produced in E. coli", "result": "no reaction or develop a greatly decreased reaction"}]}]}
